In experiment [1] the target is T1, hDLL3 EGF1-6 (aa 216-492) fused to mIgG2a CH2-CH3 Fc (human).
T1 construct: also called DLL3 EGF1-6(mIgG2aCH2-CH3); hDLL3 EGF domain construct
T1 chain: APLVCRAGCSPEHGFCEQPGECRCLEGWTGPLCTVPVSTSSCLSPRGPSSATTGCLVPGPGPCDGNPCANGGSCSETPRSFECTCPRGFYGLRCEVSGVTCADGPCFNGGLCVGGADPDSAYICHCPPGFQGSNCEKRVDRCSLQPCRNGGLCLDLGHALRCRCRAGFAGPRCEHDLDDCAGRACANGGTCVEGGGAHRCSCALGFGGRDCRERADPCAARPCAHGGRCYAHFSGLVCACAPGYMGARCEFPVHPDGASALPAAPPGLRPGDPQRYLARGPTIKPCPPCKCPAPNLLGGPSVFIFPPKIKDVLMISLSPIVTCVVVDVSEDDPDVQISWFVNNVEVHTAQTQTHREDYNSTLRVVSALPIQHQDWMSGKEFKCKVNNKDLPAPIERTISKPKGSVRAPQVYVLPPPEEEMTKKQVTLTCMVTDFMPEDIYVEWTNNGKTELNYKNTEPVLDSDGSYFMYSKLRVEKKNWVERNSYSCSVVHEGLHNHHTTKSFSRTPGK
The experiment can be described thus: ELISA on coated hDLL3 EGF1-6-mIgG2a Fc (2 ug/ml), anti-hIgG-Fc-HRP, A450.

The next experiment has as its target T2, human DLL3 on cells (human, UniProt Q9NYJ7 27-618).
T2 sequence (looked up): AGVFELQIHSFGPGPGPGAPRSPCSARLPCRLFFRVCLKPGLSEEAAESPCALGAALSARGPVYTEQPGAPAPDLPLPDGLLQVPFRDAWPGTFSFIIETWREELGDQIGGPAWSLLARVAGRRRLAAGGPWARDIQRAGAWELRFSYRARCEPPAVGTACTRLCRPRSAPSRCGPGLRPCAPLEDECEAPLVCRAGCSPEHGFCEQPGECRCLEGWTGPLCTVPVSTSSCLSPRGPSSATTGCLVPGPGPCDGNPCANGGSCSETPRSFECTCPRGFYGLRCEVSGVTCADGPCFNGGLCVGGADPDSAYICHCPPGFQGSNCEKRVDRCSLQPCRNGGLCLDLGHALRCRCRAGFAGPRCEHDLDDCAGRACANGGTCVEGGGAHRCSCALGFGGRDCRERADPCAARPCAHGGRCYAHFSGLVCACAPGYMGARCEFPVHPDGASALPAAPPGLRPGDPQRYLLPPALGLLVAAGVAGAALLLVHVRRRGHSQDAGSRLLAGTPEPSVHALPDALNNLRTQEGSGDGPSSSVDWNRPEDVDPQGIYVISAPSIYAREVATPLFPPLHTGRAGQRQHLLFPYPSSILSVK
The experiment can be described thus: cell-based or functional assay.

Experiment [2] addresses T3, DLL3 EGF1-6(mIgG2aCH2-CH3) (human).
T3 construct: also called hDLL3 EGF domain construct; DLL3 EGF1-6 domain
T3 chain: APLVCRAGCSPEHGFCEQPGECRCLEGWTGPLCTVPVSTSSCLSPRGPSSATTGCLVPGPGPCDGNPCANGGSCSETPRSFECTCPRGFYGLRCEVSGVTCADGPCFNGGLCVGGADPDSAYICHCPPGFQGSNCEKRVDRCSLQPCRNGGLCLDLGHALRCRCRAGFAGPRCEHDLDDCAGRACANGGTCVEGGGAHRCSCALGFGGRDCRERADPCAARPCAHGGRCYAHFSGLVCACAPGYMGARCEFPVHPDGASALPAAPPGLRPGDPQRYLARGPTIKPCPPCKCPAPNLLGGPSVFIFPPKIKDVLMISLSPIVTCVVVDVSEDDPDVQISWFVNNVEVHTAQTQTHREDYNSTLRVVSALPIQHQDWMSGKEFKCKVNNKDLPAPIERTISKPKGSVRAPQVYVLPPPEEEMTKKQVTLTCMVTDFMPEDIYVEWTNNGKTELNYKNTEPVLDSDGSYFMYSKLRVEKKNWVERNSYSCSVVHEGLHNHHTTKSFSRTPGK
The experiment can be described thus: Octet BLI, VHH-Fc captured on AHC sensor, DLL3 EGF1-6-mIgG2a Fc titrated. On the technique in general: In BLI a coated tip is dipped into the sample, and binding shifts an interference pattern.

For experiment [3], the target named is T4, DLL3 on cells (SHP-77, NCI-H82, HEK-DLL3, membrane proteome array cells) (human, UniProt Q9NYJ7 27-618).
T4 construct: whole, on cells; also called hDLL3
T4 sequence (looked up): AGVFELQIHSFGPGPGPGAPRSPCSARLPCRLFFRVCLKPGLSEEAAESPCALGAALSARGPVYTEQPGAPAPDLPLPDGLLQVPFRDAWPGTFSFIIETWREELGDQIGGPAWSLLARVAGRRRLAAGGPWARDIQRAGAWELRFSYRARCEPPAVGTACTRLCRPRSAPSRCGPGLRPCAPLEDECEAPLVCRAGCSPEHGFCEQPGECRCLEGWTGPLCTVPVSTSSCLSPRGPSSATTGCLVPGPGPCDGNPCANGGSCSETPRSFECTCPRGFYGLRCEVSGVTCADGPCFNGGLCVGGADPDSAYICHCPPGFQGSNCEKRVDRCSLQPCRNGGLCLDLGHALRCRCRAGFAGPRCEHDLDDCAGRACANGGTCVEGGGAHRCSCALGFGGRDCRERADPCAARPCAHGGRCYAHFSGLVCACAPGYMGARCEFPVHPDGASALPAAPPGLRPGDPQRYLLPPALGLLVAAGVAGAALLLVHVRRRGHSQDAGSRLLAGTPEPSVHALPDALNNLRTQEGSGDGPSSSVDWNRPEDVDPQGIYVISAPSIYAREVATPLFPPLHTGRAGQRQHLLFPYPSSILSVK
The experiment can be described thus: flow cytometry on SHP-77 cells, Geomeans RL1-H.

The target in experiment [4] is T4, DLL3 on cells (SHP-77, NCI-H82, …). Nature of the experiment: flow cytometry on SHP-77 cells, Geomeans RL1-H. This is another data set of the same source. (In general: A flow cytometer gives signals particle by particle.)

Read-outs that look alike come from different tables or passages of the source.

B1: 24 (Fc fusion)
VHH-Fc chain: QVQYVESGGGLVQPGGSLRLSCAASGFTFSSYRINWYRQPPGKGRELVGSITDTGSTNYADSVKGRFTISRDNAKNTVYLQMSSLKPEDTAVYYCRAPTIAAYWGQGTQVTVSS
notes: same clone as 1.m43, 2.m5, 3.m7, 3.m51, 4.m1; also called Clone 24
B1: the binding result in experiment [1] is reported as “binds”.

B2: 100 (Fc fusion)
VHH-Fc chain: QVQLVESGGGSVQPGGSLRLSCAASGIVFNSDVMGWYRQVPGKPRELVATITGGGSTNYATSVKGRFTISRDNAKNTVYLQMNSLRPEDTAVYYCNGRRGDSMLAFWAQGTQVTVSS
notes: same clone as 1.m44, 2.m24, 3.m26, 3.m53, 4.m7; also called Clone 100
For B2, the binding result in experiment [1] is “binds”.

B3: 107 (Fc fusion)
VHH-Fc chain: QVQLVESGGGLVQAGDSLRLSCVASDRTFSSYAVGWFRQAPGKEREFVAAISWNGGRTLYTDSVTGRFTISRDNAKSTVYLQMNGLKPEDTAVYYCAARPAAPTRRLEYDYWGQGTQVTVSS
notes: same clone as 1.m45, 2.m28, 3.m30, 3.m55, 4.m13
In the case of B3, the binding result in experiment [1] is “binds”.

B4: Clone 186 VHH-Fc with H435Q Fc (Fc fusion)
chain: QVQVVESGGGLVQPGGSLTLSCAASGFDFSTYTVNWYRQAPGKEREKVARISSTGTTTNYANSAKGRFTLSRDNAKNRVYLQMNNLKPEDTAVYFCNFERFDSNYWGQGTQVTVSSAPELLGGPSVFLFPPKPKDTLMISRTPEVTCVVVDVSHEDPEVKFNWYVDGVEVHNAKTKPREEQYNSTYRVVSVLTVLHQDWLNGKEYKCKVSNKALPAPIEKTISKAKGQPREPQVYTLPPSREEMTKNQVSLTCLVKGFYPSDIAVEWESNGQPENNYKTTPPVLDSDGSFFLYSKLTVDKSRWQQGNVFSCSVMHEALHNQYTQKSLSLSPG
With B4, the “H435Q-Fc SHP-77 Internalization FOI” value with human DLL3 on cells amounted to 1.18 FOI.

B5: 107_zu2 (Fc fusion)
chain: QVQLVESGGGLVQPGGSLRLSCAASDRTFSSYAVGWFRQAPGQGLEFVAAISWNGGRTLYTDSVTGRFTISRDNSKNTLYLQMNSLRAEDTAVYYCAARPAAPTRRLEYDYWGQGTLVTVSSEPKSSDKTHTCPPCPAPEAEGAPSVFLFPPKPKDTLMISRTPEVTCVVVDVSHEDPEVKFNWYVDGVEVHNAKTKPREEQYNSTYRVVSVLTVLHQDWLNGKEYKCKVSNKALPSSIEKTISKAKGQPREPQVYTLPPSREEMTKNQVSLTCLVKGFYPSDIAVEWESNGQPENNYKTTPPVLDSDGSFFLYSKLTVDKSRWQQGNVFSCSVMHEALHNQYTQKSLSLSPG
notes: Humanized VHH-Fc
Usually Kd stands for the equilibrium constant for the complex coming apart. A lower Kd goes with a tighter complex. By koff is commonly meant the first-order rate constant of dissociation. By kon is commonly meant the second-order rate constant of association. As usually defined, the EC50 (read off the curve) is the concentration at which the effect is half-maximal. Higher therefore signals a less potent agent. As to B5, in experiment [2], the Kd came out at 5.04 nM, the koff stood at 0.000513 s⁻¹ and the kon was 102000 M⁻¹ s⁻¹. For the same molecule, the “EC50 (read off the curve)” value in experiment [3] is around 0.2 nM. The “EC50 (read off the curve)” value in experiment [4] is around 0.2 nM.

B6: 126 (parental VHHFc of Example 41) (Fc fusion)
chain: QVQLVESGGGMVQPGGSLRLSCAASGITFSMYSMSWYRQPPGKQRELVAATTTFGSTNYADSVKGRFTISRDNAKNTVYLQMNSLKPEDTAVYLCNARFTSEEYWGQGTQVTVSS
notes: Parental VHHFc; not shown: hinge and Fc
In the case of B6, the binding result in experiment [1] is recorded as “no binding (tested: 100 nM)”.

These data come from patent US20250051476A1 (ABDERA THERAPEUTICS, published 2025).
